Assay [1] concerns the target T1, His-tagged ectodomain of human transferrin receptor 1 (hTfR1, R121-F760) (human, UniProt P02786 121-760).
T1 construct: Made in CHO cells; Biotinylated for some uses; also called human TfR1
Briefly: SPR; hTfR1 captured on amine-coupled hTf, binder as analyte. How it is done: (§1) The contact time was 150 s for each concentration at […] with a final dissociation step of 500 s. […] The data with respect to the association rate constant (ka), the dissociation rate constant (kd) and the equilibrium dissociation constant (KD) was evaluated using Biacore T200 software evaluation tool applying a Langmuir 1:1 model.
For orientation: SPR reads the build-up and loss of mass on a sensor chip optically.

Assay [2] concerns the target T1, His-tagged ectodomain of human …. Put plainly: SPR Biacore T200 single-cycle; hTfR1 captured on amine-coupled hTf, binder as analyte; 1:1 model. On the procedure:
as §1

Assay [3] shares this target. Briefly: SPR Biacore 8K single-cycle; hTfR1 amine-coupled to CM5 chip, fusion as analyte.
In assay [4] the target is T2, His-tagged ectodomain of mouse transferrin receptor 1 (mTfR1, S122-F763) (mouse, UniProt Q62351 122-763).
T2 construct: also called mouse TfR1
Briefly: ELISA on coated TfR1 ectodomain; 125I-labelled or original sample, anti-VHH detection. How it is done: Briefly, high-binding half-area 96-well plates (Costar 3690, Merck) were coated with ectodomains of hTfR1 and mTfR1 at […] (in PBS pH 7.4). and left over night at 4° C. Plates were blocked for 1 h using 1% BSA 0.05% Tween®20 (Merck) in PBS.
In general terms: ELISA stands for enzyme-linked immunosorbent assay.

For orientation: Kd means the concentration at which binding is half-saturated. A lower Kd goes with a tighter complex. As a reminder, the koff is the first-order rate constant of dissociation. Low values mean slow dissociation, high ones fast dissociation. The term kon denotes the rate constant with which the complex forms.

T2 sequence (Q62351 other isoform, or with tags, fused parts or gaps limits assumed): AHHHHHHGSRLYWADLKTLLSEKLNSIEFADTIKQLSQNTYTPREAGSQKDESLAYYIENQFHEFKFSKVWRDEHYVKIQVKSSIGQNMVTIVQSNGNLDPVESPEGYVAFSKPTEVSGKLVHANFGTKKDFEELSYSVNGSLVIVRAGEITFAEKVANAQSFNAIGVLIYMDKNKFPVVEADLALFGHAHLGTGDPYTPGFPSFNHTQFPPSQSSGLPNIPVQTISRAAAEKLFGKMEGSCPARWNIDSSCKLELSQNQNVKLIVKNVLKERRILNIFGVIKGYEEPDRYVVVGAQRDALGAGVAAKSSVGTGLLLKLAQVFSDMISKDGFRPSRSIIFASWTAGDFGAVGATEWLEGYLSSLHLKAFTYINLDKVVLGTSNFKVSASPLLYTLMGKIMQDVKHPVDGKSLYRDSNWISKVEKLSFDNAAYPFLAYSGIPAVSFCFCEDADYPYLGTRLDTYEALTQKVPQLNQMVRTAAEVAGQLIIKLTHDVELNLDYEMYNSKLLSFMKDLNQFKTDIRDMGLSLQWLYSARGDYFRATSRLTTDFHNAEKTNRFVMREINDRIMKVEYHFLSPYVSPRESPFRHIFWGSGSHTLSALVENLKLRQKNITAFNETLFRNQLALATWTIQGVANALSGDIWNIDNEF
T1 sequence (P02786 other isoform, or with tags, fused parts or gaps limits assumed): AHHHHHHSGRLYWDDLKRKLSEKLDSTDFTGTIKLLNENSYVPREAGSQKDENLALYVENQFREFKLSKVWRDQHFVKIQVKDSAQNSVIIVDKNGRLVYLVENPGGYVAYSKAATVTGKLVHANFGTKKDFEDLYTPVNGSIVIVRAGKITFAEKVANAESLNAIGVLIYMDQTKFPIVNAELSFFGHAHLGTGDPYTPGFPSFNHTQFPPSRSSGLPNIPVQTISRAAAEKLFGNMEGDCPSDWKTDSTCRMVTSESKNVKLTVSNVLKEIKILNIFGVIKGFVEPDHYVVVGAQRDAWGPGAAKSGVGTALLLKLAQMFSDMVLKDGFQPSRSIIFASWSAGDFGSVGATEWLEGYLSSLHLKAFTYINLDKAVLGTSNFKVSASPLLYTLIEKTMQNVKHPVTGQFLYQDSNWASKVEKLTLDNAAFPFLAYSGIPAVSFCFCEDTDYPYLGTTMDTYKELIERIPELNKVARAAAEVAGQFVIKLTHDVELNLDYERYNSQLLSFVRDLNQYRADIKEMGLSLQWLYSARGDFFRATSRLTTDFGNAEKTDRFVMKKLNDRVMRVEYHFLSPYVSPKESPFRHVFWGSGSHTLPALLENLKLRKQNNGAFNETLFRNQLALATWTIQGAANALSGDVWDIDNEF

B1: KB_B01 monomeric VHH with C-terminal 6xHis tag and C-tag (VHH)
VHH: QVQLQESGGGLVQAGGSLRLSCAASGTPFSNNYMRWYRQAPGKQREWVAGFTSGGSTNYADSVKGRFTISRDNAEGTVYLQMDNLKPEDTAVYYCYFLDVWGQGTQVTVSS
notes: Single VHH unit from the E. coli periplasm
For B1, the “fold lower affinity (KD) than BA1” value in assay [1] was 166 fold. In assay [2], this molecule returned a Kd of 3.31 nM, a koff of 0.00198 s⁻¹ and a kon of 597000 M⁻¹ s⁻¹.

B2: KB_B01-scFv (KB_B01 at the N-terminus of 3D6 scFv) (bispecific antibody)
chain: QVQLQESGGGLVQAGGSLRLSCAASGTPFSNNYMRWYRQAPGKQREWVAGFTSGGSTNYADSVKGRFTISRDNAEGTVYLQMDNLKPEDTAVYYCYFLDVWGQGTQVTVSSGGGGSGGGGSGGGGSEVKLVESGGGLVKPGASLKLSCAASGFTFSNYGMSWVRQNSDKRLEWVASIRSGGGRTYYSDNVKGRFTISRENAKNTLYLQMSSLKSEDTALYYCVRYDHYSGSSDYWGQGTTVTVSGGGGSGGGGSGGGGSYVVMTQTPLTLSVTIGQPASISCKSSQSLLDSDGKTYLNWLLQRPGQSPKRLIYLVSKLDSGVPDRFTGSGSGTDFTLKISRIEAEDLGLYYCWQGTHFPRTFGGGTKLEIKGSENLYFQSHHHHHH
notes: also called VHH-scFv
In assay [3], B2 showed a Kd of 0.845 nM, a koff of 0.00045 s⁻¹ and a kon of 535000 M⁻¹ s⁻¹. In assay [4], the binding result is reported as “binds”.

B3: scFv-KB_B01 (3D6 scFv at the N-terminus of KB_B01) (bispecific antibody)
chain: EVKLVESGGGLVKPGASLKLSCAASGFTFSNYGMSWVRQNSDKRLEWVASIRSGGGRTYYSDNVKGRFTISRENAKNTLYLQMSSLKSEDTALYYCVRYDHYSGSSDYWGQGTTVTVSGGGGSGGGGSGGGGSYVVMTQTPLTLSVTIGQPASISCKSSQSLLDSDGKTYLNWLLQRPGQSPKRLIYLVSKLDSGVPDRFTGSGSGTDFTLKISRIEAEDLGLYYCWQGTHFPRTFGGGTKLEIKGGGGSGGGGSGGGGSQVQLQESGGGLVQAGGSLRLSCAASGTPFSNNYMRWYRQAPGKQREWVAGFTSGGSTNYADSVKGRFTISRDNAEGTVYLQMDNLKPEDTAVYYCYFLDVWGQGTQVTVSSGSENLYFQSHHHHHH
notes: also called scFv-VHH
In assay [3], B3 gave a Kd of 1.8 nM, an off-rate constant (koff) of 0.000259 s⁻¹ and a kon of 144000 M⁻¹ s⁻¹. In addition, in assay [4], the binding result is recorded as “binds”.

B4: BV-scFv (benchmark VHH BV at the N-terminus of 3D6 scFv) (bispecific antibody)
chain: EVQLVESGGGVVQPGGSLKLSCVASGTDFSINFIRWYRQAPGKQREFVAGFTATGNTNYADSMKGRFTISRDNTKNAVYLQIDSLKPEDTAVYYCYMLDKWGQGTQVTVSSGGGGSGGGGSGGGGSEVKLVESGGGLVKPGASLKLSCAASGFTFSNYGMSWVRQNSDKRLEWVASIRSGGGRTYYSDNVKGRFTISRENAKNTLYLQMSSLKSEDTALYYCVRYDHYSGSSDYWGQGTTVTVSGGGGSGGGGSGGGGSYVVMTQTPLTLSVTIGQPASISCKSSQSLLDSDGKTYLNWLLQRPGQSPKRLIYLVSKLDSGVPDRFTGSGSGTDFTLKISRIEAEDLGLYYCWQGTHFPRTFGGGTKLEIKGSENLYFQSHHHHHH
Take B4: in assay [3], the Kd amounted to 0.189 nM, the koff turned out to be 0.000117 s⁻¹ and the kon turned out to be 617000 M⁻¹ s⁻¹. The binding result in assay [4] is “binds”.

B5: scFv-BV (3D6 scFv at the N-terminus of benchmark VHH BV) (bispecific antibody)
chain: EVKLVESGGGLVKPGASLKLSCAASGFTFSNYGMSWVRQNSDKRLEWVASIRSGGGRTYYSDNVKGRFTISRENAKNTLYLQMSSLKSEDTALYYCVRYDHYSGSSDYWGQGTTVTVSGGGGSGGGGSGGGGSYVVMTQTPLTLSVTIGQPASISCKSSQSLLDSDGKTYLNWLLQRPGQSPKRLIYLVSKLDSGVPDRFTGSGSGTDFTLKISRIEAEDLGLYYCWQGTHFPRTFGGGTKLEIKGGGGSGGGGSGGGGSEVQLVESGGGVVQPGGSLKLSCVASGTDFSINFIRWYRQAPGKQREFVAGFTATGNTNYADSMKGRFTISRDNTKNAVYLQIDSLKPEDTAVYYCYMLDKWGQGTQVTVSSGSENLYFQSHHHHHH
notes: also called scFc-BV
In assay [3], B5 displayed a Kd of 0.698 nM, a koff of 0.000122 s⁻¹ and a kon of 175000 M⁻¹ s⁻¹. Further, the binding result in assay [4] is “binds”.
